Assay results: patent publication US20220064286A1 (Genentech, published 2022)
Blank lines part the entries; values can stand above or below the binder they belong to.

Legend:
human TIGIT protein [1] = molecular target: T1, human TIGIT protein (human, UniProt Q495A1 22-141, limits assumed); assay: SPR, captured mAb
T1 construct: Recombinant protein (Genentech) used in ELISA screening and as SPR analyte; also called TIGIT antigen
T1 sequence: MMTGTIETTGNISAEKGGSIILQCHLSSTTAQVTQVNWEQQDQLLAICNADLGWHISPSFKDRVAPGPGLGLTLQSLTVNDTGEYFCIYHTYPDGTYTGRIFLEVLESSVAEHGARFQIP
Method: (§1) Briefly, a series S CM5 biosensor chip was activated with N-ethyl-N′-(3-dimethylaminopropyl)-carbodiimide hydrochloride (EDC) and N-hydroxysuccinimide (NHS) reagents according to the supplier's (GE Healthcare Biosciences, Piscataway, N.J.) instructions, and a human antibody capture kit was applied to couple goat anti-human Fc IgGs in order to achieve approximately 10,000 response units (RU) on each flow cell, followed by blocking un-reacted groups with 1M ethanolamine.
(§2) (flow rate: 30 μl/min) with no regeneration between injections. The sensorgrams were recorded and evaluated by BIAcore™ T200 Evaluation Software (version 2.0) after subtraction of reference cell signal. Association rates (kₒₙ) and dissociation rates (koff) were calculated using a simple one-to-one Langmuir binding model. The equilibrium dissociation constant (KD) was calculated as the ratio koff/kₒₙ.
(§3) The first humanized versions, h6B2, L1H1, h10A5.L1H1, h7E7, L1H1, and h15C8.L1H1, which contain both rat CDRs and framework residues at Vernier positions, and the fully humanized versions, h6B2.L2H5, h10A5.L4H4, h7E7.L5H9, and h15C8.L5H9, which contain only rat CDRs were subject to BIAcore affinity measurement by comparison with original rat antibodies, rat6B2, rat10A5, rat7E7 and rat 15C8. For binding affinity determinations of TIGIT antibodies against human TIGIT, cynomolgus monkey TIGIT and human alanine-scanned TIGIT mutants by single-cycle kinetics, Surface Plasmon Resonance (SRP) measurement with a BIACORE™-T200 instrument was used, as described above.

[2] = molecular target: T2, cynomolgus monkey (cyno) TIGIT protein (cynomolgus monkey, UniProt A0A7N9I9V4 89-209); assay: SPR, captured mAb
T2 sequence (A0A7N9I9V4 entry or part of it): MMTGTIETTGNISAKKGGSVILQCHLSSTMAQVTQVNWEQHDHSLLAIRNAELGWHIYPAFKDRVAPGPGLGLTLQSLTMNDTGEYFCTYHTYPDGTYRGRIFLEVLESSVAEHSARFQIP
Method: as §1, §2, §3

human TIGIT protein [3] = molecular target: T1, human TIGIT protein; assay: SPR, bivalent affinity
[4] = molecular target: T2, cynomolgus monkey (cyno) TIGIT protein; assay: SPR, bivalent affinity
human TIGIT protein [5] = molecular target: T1, human TIGIT protein; assay: SPR, monovalent affinity
[6] = molecular target: T2, cynomolgus monkey (cyno) TIGIT protein; assay: SPR, monovalent affinity
[7] = molecular target: T3, human TIGIT on activated human primary T cells (human, UniProt Q495A1 22-244); assay: FACS, activated human T cells
T3 construct: also called Human T cell
T3 sequence: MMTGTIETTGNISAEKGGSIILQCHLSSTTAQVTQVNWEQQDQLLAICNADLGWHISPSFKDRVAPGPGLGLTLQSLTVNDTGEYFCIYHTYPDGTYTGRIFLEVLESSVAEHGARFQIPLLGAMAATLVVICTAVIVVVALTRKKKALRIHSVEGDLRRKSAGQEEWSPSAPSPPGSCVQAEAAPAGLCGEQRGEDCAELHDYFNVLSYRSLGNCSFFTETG
Method: The OMT- and SD-derived anti-TIGIT clones were also tested for binding to human primary T cells by FACS analysis. Human PBMC were activated for with plate-bound anti-CD3 (5 μg/ml) and soluble anti-CD28 (2 μg/ml) for 2 days as described in Yu et al. Nature Immunology. 10: 48-57, 2009, which is incorporated herein by reference in its entirety. Cells were then washed and incubated with incubated with each anti-TIGIT antibody at the indicated concentrations and then detected via a FITC-labeled anti-hIgG antibody. Cells were also stained with anti-CD4, anti-CD8, and anti-CD25 (BD bioscience). Human CD4+(CD25+CD4+) and human CD8+(CD25+CD8+) T cells were assessed for binding by the anti-TIGIT clones by FACS. All samples were acquired on LSR-II or LSR-Fortessa instruments (BD Biosciences) and analyzed using FlowJo software (Treestar).

[8] = molecular target: T4, full-length human TIGIT on CHO cells (human, UniProt Q495A1 22-244); assay: FACS, CHO cells expressing TIGIT
T4 construct: also called CHO-hTIGIT; hu TIGIT
T4 sequence: T3 sequence

[9] = molecular target: T4, full-length human TIGIT on CHO cells; assay: FACS, PVR-Fc on CHO-TIGIT cells; competitor PVR-Fc
Method: (§4) These studies were further validated in CHO-TIGIT PVR blocking experiments in which TIGIT-expressing CHO cells were incubated with labeled PVR-Fc fusion protein in the presence of anti-TIGIT antibody or an human IgG1 control (FIG. 4A).

[10] = molecular target: T5, cynomolgus TIGIT on CHO cells (cynomolgus monkey, UniProt A0A7N9I9V4 89-312); assay: FACS on CHO cells expressing cyno TIGIT, FITC anti-hIgG detection
T5 construct: whole, on cells; also called CHO-cyTIGIT; cyTIGIT
T5 sequence (A0A7N9I9V4 entry or part of it): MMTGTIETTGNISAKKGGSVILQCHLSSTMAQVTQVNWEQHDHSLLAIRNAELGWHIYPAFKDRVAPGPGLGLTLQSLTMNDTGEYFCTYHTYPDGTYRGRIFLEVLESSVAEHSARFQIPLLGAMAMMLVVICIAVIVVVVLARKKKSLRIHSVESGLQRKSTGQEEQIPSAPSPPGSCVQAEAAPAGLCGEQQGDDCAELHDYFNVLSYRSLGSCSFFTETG
Method: Additional in vitro binding studies of the OMT- and SD-derived anti-TIGIT antibody clones were conducted. The OMT- and SD-derived anti-TIGIT clones were tested for binding to human and cyno TIGIT expressed on the surface of CHO cells by FACS analysis. CHO cells were transfected with full-length human TIGIT (CHO-hTIGIT) or cynomologous TIGIT (CHO-cyTIGIT). The TIGIT-expressing CHO cells were incubated with each anti-TIGIT antibody at the indicated concentrations and then detected via a FITC-labeled anti-hIgG antibody (see FIG. 1A) using standard methods. The results, shown in Table 6 and FIGS. 1B-1E, corroborate the results from the BIACORE™ analysis, described above.

[11] = molecular target: T5, cynomolgus TIGIT on CHO cells; assay: FACS blocking assay: labelled PVR-Fc (blocked ligand) on CHO cells expressing cyno TIGIT
Method: as §4

Kd (human TIGIT protein [1]): 0.04 nM
koff (human TIGIT protein [1]): 3.5e-05 s⁻¹
kon (human TIGIT protein [1]): 997000 M⁻¹ s⁻¹
Kd [2]: 0.29 nM
koff [2]: 0.000202 s⁻¹
kon [2]: 688000 M⁻¹ s⁻¹
Kd (human TIGIT protein [3]): ≤ 0.027 nM
Kd [4]: 0.091 nM
Kd (human TIGIT protein [5]): 0.035 nM
Kd [6]: 0.29 nM
EC50 [7]: 0.09 nM
EC50 [8]: 0.52 nM
IC50 [9]: 0.08 nM
B1: rat6B2 (antibody, V domains shown)
VH: QVSLKESGPGILQPSHTLSLTCSFSGFSLSTYGMGVSWIRQPSEKGLEWLASIWWNGNTYYNPSLKSRLTVSKDASNDQAFLNVTSVDTTDTATYYCAHTGGAVITWFAYWGQGTLVTVSS
VL: NIVMTQSPKSMSISVGDRVTMNCKASQSVGKNIAWYQQKPGQSPKLLIYYASNRYTGVPDRFTGGGSGTDFTLTINTVQAEDAAFFYCQHIYNSPYPFGTGTKLEIK
notes: SD rat-derived; rat V domains as FR/HVR pieces; also called 1.6B2; Chimeric 1.6B2

Kd (human TIGIT protein [1]): 0.03 nM
koff (human TIGIT protein [1]): 1.8e-05 s⁻¹
kon (human TIGIT protein [1]): 568000 M⁻¹ s⁻¹
Kd [2]: 0.07 nM
koff [2]: 2.7e-05 s⁻¹
kon [2]: 399000 M⁻¹ s⁻¹
Kd (human TIGIT protein [3]): ≤ 0.004 nM
Kd [4]: ≤ 0.009 nM
Kd (human TIGIT protein [5]): ≤ 0.018 nM
Kd [6]: 0.067 nM
EC50 [7]: 0.11 nM
EC50 [8]: 0.1 nM
IC50 [9]: 0.04 nM
EC50 (read off the curve) [10]: ~0.3 nM
IC50 (read off the curve) [11]: ~0.3 nM
B2: rat7E7 (antibody, V domains shown)
VH: EVQLQQSGPELQRPGASVKLSCKATGYTFTEYSIYWVKQRPKQSLEIIGRIDPKNGRTYYVDKFKNRATLTADTSSNTAYMQLSSLTSEDTATYFCTRIYGFYFDFWGQGVMVTASS
VL: NIHLTQSPSLLSASVGDRVTLSCKGSQNVNKYLVWYQQKLGEAPKLLIYNTDNLQSGIPSRFSGSGSGTDYTLTISSLQPEDAATYFCYQYNNGFTFGSGTKLEIK
notes: SD rat-derived; rat V domains as FR/HVR pieces; also called 1.7E7; Chimeric 1.7E7
